According to the supplement of paper PMC6379048:

Assays:
Experiment in all cases: EC50 of free RNA motif oligo competing protein binding to immobilised probe
ISY1 = biological target: T1, ISY1 (UniProt Q9ULR0)
T1 sequence: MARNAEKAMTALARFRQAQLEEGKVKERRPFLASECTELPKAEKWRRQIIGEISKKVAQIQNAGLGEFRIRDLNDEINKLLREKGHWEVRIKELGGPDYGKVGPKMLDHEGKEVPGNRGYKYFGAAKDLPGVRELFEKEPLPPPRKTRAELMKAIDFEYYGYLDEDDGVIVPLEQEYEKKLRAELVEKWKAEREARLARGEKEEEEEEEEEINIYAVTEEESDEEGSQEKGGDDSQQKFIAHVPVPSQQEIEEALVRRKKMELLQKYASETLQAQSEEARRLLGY
Procedure, shortened: (§1)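 HEK293-FT lysate (2.5 mg protein/well) was pre-incubated 1 h at 4°C with free RNA oligos (0 nM to 30 μM), then 30 min at 4°C with the same 5′-amino-C6 oligos coupled to NHS-Sepharose beads. Bound proteins were quantified by label-free LC-MS/MS in three biological replicates and two independent experiments, and normalised to the water control. EC50 came from a four-parameter log-logistic fit; Kd is EC50 times a protein-dependent depletion factor.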

MSI2 = MSI2 (UniProt Q96DH6)
Chain of MSI2 (Q96DH6 whole entry): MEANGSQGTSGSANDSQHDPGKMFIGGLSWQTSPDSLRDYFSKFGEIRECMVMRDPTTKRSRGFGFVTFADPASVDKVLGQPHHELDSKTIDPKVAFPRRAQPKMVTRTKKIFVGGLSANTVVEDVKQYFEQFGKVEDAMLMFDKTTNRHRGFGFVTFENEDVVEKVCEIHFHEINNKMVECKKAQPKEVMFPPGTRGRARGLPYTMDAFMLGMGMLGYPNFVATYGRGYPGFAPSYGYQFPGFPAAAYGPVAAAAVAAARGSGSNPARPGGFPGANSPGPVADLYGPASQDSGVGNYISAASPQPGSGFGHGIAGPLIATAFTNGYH
Procedure, shortened: as §1

TOE1 = TOE1 (UniProt Q96GM8)
Procedure, shortened: as §1

AQR = biological target: T2, AQR (UniProt O60306)
T2 sequence: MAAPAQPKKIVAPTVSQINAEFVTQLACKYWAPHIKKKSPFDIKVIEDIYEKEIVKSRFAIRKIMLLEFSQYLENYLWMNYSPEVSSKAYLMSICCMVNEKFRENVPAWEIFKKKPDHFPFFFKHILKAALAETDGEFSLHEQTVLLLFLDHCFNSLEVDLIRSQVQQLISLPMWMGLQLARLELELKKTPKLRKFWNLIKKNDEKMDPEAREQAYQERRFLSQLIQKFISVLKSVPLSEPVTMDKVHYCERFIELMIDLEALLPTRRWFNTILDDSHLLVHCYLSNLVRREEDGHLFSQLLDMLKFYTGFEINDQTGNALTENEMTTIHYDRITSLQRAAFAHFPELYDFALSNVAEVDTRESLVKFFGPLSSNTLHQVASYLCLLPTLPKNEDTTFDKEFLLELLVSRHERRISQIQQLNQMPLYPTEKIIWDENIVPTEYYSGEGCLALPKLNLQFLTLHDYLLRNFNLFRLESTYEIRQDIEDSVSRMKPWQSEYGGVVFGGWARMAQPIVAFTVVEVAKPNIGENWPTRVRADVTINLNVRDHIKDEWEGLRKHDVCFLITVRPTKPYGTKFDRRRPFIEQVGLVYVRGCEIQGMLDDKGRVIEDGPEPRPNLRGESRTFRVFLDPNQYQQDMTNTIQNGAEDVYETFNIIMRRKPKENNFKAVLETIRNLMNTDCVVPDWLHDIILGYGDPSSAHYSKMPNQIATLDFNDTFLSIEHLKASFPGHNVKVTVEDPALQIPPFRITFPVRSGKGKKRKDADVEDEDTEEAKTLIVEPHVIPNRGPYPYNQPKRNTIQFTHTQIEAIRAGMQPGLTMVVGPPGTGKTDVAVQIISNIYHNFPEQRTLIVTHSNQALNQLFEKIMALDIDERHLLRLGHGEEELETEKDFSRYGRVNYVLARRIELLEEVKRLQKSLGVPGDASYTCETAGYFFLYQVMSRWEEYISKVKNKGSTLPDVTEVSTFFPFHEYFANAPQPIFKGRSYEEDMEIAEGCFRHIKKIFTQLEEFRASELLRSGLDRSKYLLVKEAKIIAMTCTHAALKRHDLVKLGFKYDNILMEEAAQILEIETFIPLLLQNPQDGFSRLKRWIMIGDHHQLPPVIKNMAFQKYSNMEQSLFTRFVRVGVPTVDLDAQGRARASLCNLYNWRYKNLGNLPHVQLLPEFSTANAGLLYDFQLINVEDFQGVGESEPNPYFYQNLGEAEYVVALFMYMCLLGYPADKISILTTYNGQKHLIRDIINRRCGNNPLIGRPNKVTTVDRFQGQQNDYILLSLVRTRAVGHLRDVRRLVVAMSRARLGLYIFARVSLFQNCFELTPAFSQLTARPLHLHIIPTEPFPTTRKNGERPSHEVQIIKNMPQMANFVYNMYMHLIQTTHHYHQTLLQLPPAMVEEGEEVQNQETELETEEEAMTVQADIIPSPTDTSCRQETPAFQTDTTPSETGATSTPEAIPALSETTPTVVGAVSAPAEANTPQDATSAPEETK
Procedure, shortened: as §1

ZCCHC24 = ZCCHC24 (UniProt Q8N2G6)
Chain of ZCCHC24 (Q8N2G6 whole entry): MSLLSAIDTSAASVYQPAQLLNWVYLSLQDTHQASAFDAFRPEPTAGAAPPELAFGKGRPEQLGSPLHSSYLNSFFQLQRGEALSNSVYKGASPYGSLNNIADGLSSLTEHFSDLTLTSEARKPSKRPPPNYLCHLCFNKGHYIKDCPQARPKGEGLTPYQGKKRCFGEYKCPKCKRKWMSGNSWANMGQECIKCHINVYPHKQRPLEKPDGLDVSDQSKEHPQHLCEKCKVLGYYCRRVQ
Procedure, shortened: as §1

Sequence	EC50 (ISY1) [nM]	EC50 (MSI2) [nM]	EC50 (TOE1) [nM]	EC50 (AQR) [nM]	EC50 (ZCCHC24) [nM]
AAUAAA	914	826	2110	877	545
UAUUUAU	724	803	1420	706	2520
